The results in this text go back to US20130142788A1 (published 2013).

Assay [1] addresses T1, recombinant mature dimeric myostatin (human and mouse (mature sequences 100% …, UniProt O08689 268-376)).
T1 construct: also called GDF-8; mature myostatin
T1 sequence: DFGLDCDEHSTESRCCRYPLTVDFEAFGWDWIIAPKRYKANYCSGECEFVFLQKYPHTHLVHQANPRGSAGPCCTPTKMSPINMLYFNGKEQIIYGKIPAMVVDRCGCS
Kind of assay: ELISA, myostatin coated at 10 ng/well. Here is the method:
10B3 and 10B3 chimera (10B3C) bound myostatin (R&D Systems, 788-G8-010/CF) in a sandwich ELISA. Plates were coated with myostatin at 10 ng/well and blocked with Block solution (PBS, 0.1% TWEEN and 1% BSA). Following washing (PBS, 0.1% TWEEN), antibody was incubated at 37° C. for 2 hours over a dilution series and plates washed again prior to incubation at 37° C. for 1 hour with anti-mouse HRP or anti-human HRP (Dako, P0161 & Sigma, A-8400, respectively). Plates were again washed and OPD substrate (Sigma, P9187) added until colourometric reaction occurred and the reaction stopped by the addition of H₂SO₄.
A general note: ELISA stands for enzyme-linked immunosorbent assay.

Assay [2] has as its target T2, human myostatin pro-peptide dimer (human, UniProt O14793 25-266, limits assumed).
T2 sequence: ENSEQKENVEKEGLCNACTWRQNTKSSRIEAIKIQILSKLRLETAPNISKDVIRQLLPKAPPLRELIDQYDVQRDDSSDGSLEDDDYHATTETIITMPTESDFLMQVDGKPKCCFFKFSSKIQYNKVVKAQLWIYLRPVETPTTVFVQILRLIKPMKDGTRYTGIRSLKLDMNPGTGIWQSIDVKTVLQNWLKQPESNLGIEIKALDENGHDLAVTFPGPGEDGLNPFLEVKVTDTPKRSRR
Kind of assay: ELISA, antigen coated at 100 ng/well. Here is the method: The myostatin antigens were coated onto wells of an EIA/RIA plate (Costar) at 100 ng/well at 4° C. overnight in PBS, prior to blocking (PBS, 3% BSA) for 30 minutes at room temperature. Plates were washed (PBS, 1% BSA and 0.1% Tween20), prior to the addition of a dilution series of 10B3 in wash buffer and incubation for 2 hours at room temperature. Plates were again washed prior to addition of peroxidase-conjugated Affinipure F(ab′)2 fragment donkey anti-mouse IgG (Jackson Laboratories cat 715-036-151) diluted 1:10,000 in wash buffer and incubated for 1 hour at room temperature. A final wash step preceded addition of TMB substrate and colorimetric change which was stopped with Sulphuric acid and plates read at 450 nm.

Assay [3] has as its target T1, recombinant mature dimeric myostatin. Kind of assay: ActRIIb receptor neutralisation ELISA: antibody pre-incubated with 2 nM biotinylated myostatin, binding to coated ActRIIb. The protocol:
(§1) Recombinant soluble ActRIIb (R&D Systems 339-RBB) was coated in wells of an ELISA plate at 1 μg/ml in carbonate buffer overnight at 4° C. Plates were blocked (see Block solution above at 2.3) and washed following standard ELISA protocols. In parallel, 2 nM biotinylated myostatin (in-house, as described in 1.1, biotinylated material) was pre-incubated with an antibody dilution series consisting of 10B3, 10B3C, and a negative control (IgG1 isotype control) for 2 hours at 37° C. The biotinylated myostatin:antibody reactions were then added to the ActRIIb coated plate for 1 hour at 37° C. Standard wash procedures were followed prior to addition of 1:1000 diluted streptavidin-HRP conjugate (Dako P0397) and a further 37° C. incubation for 1 hour. Plates were again washed and assayed at absorbance 490 nm following OPD substrate (Sigma) and acid stop solution treatment. Inhibition curves and IC50 values for the inhibition of myostatin activity are shown in FIG. 5 and Table 8 respectively.

For assay [4] the target is unchanged. Kind of assay: ActRIIb receptor binding assay: inhibition of biotinylated myostatin binding to coated ActRIIb. The protocol:
as §1

Assay [5] has the same target. Kind of assay: Kinexa solution phase affinity.
Assay [6] shares this target. Kind of assay: BIAcore T100 SPR, antibody captured on anti-mouse IgG, myostatin analyte, all curves 1:1 model. The protocol: (§2) The affinity of 10B3 mouse parental and 10B3C for recombinant myostatin was assessed by BIAcore™ (surface plasmon resonance) analysis. Analysis was carried out by the use of a capture surface: anti-mouse IgG was coupled to a C1 chip by primary amine coupling for 10B3 mouse parental; and a protein A surface was created on a C1 chip by primary amine coupling for 10B3 chimera.
(§3) After capture, recombinant myostatin was passed over the surface at 64 nM, 16 nM, 4 nM, 1 nM, 0.25 nM and 0.0625 nM, with a buffer injection (i.e. 0 nM) used for double referencing. There was a regeneration step between each analyte injection, after which the new antibody capture event occurred before the next injection of myostatin. The data was analysed using both the 1:1 model and the Bivalent model inherent to the T100 machines analysis software (see Table 6). Both capture surfaces could be regenerated using 100 mM phosphoric acid, the work was carried out using HBS-EP as the running buffer and using 25° C. as the analysis temperature.

Assay [7] has the same target. Kind of assay: BIAcore T100 SPR, antibody captured on anti-mouse IgG, myostatin analyte, all curves Bivalent model. Here is the method: as §2, §3
A general note: Surface plasmon resonance follows binding to a sensor surface in real time, without labels.

What is called EC50 is the concentration that produces a half-maximal response. The term IC50 denotes the midpoint of a concentration-inhibition curve.

B1: mouse monoclonal antibody 10B3 (antibody, mouse IgG2a, V domains shown)
VH: EVQLQQSGPELVKPGASVKISCKASGYSFTGYFMHWVKQSHGNILDWIGNIYPYNGVSNYNQRFKAKATLTVDKSSSTAYMELRSLTSEDSAVYYCARRYYYGTGPADWYFDVWGTGTTVTVSS
VL: DIKMTQSPSSMYASLRERVTITCKASQDINSYLSWFQQKPGKSPKTLIYRANRLVDGVPSRFSGSGSGQDYSLTISSLEYEDMGIYYCLQCDEFPLTFGAGTKLELK
notes: Murine IgG2a/k; also called 10B3 mouse parental; parental 10B3
Consider B1, for which the EC50 in assay [1] was 0.069 µg/mL. The binding result in assay [2] is listed as “no binding”. Also, the results for the IC50 in assay [3] and in assay [4] were 0.132 µg/mL and 0.161 nM, respectively. In addition, the Kd in assay [5] was determined as 0.205 nM; in assay [6] it was 1 nM; in assay [7] it was 5.9 nM.
